# From the nanobody polyreactivity screen of Harvey et al. (2022)
# Assay: yeast display, Sf9 membrane polyspecificity reagent, FACS + sequencing; frameworks hold sequencing errors
# Method in brief: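 Synthetic nanobody libraries on Saccharomyces cerevisiae BJ5465 were galactose-induced for 36–48 hours, stained 1 hour at 4 °C with 10% biotinylated, detergent-solubilized Sf9 membrane reagent and enriched on streptavidin microbeads. FACS then separated cells into low and high (top ~1%) gates by anti-HA (expression) and streptavidin (reagent binding) fluorescence. Genes were colony-PCR amplified, MiSeq 2 × 250 sequenced and CDR-length filtered. A clone's polyreactivity label is that of its gate of origin.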
row,Sequence,polyreactivity (PSR sort gate)
1,QVQLVESGGGLVQAGGSLRLSCAASGRIFYNYGLGWYRQAPGKERELVARITTGGRTNYADSVKGRFTMSRDNAKNTVYLQMNSLKPEDTAVYYCNADGYHSRWYYYNYDYWGQGTQVTVSS,low polyreactivity
2,QVQLVESGGGLVQAGGSLRLSCAASGRIFYNYSMGWYRQAPGKEREVVAAISGSGGSTYYADSVKGRFTISRDNAKNTVYLQMNSLKPEDTAVYYGSTSGGQYYSRNFEYWGQGTQVTVSS,low polyreactivity
3,QVQLVESGGGLVQAGGSLRLSCAASGRIFYNYVMGWYRQAPGKERELVAAISDSGGSTYYADSVKGRFTISRDNAKNTVYLQMNSLKPEDTAVYYCNKVRPRKFWDYYYWGQGTQVTVSS,high polyreactivity
4,QVQLVESGGGLVQAGGSLRLSCAASGRIFYPNAMGWYRQAPGKERELVAAISSGGRTNYADSVKGRFTISRDNAKNTVYLQMNSLKPEDNAVYYCAARDRSQYTSTYAFGGGYWGHGTQVTVSS,low polyreactivity
5,QVQLVESGGGLVQAGGSLRLSCAASGRIFYPNGMGWYRQAPGKERELVAAITGSGGSTYYADSVKGRFTISRDNAKNTVYLQMNSLIPEDTAVYYCAATWRYYLYPLGPHEFDYWGQGTQVTVSS,low polyreactivity
6,QVQLVESGGGLVQAGGSLRLSCAASGRIFYPYAMGGYRQAAGKEREFVAAISSGVSTNYADSVTGRFTISRDNATTTVYLQMNSLKPEDTAVYYCARSYFRYASSYYQAVSHGYSGQGTQVTVSS,high polyreactivity
7,QVQLVESGGGLVQAGGSLRLSCAASGRIFYPYAMGWYRQAPGKERELVAAISGSGARTYYADSVKGRFTISRDNAKHTVYLQMNSLKPEDTAVYYCARYQSNSDDYWGQGTQVTVSS,high polyreactivity
8,QVQLVESGGGLVQAGGSLRLSCAASGRIFYPYAMGWYRQAPGKERELVAAITSDGGSTYYADSVKGRFTISRDNAKNTVYLQMNSLKPEDTAVYYCAAYEAYKANVGGGYYYWGQGTQVTVSS,low polyreactivity
9,QVQLVESGGGLVQAGGSLRLSCAASGRIFYPYAMGWYRQAPGKESEFVAAIRWSSGSTYYADSVKGRFTISRDNAKNTVYLQMNSLKPEDTAVYYCAAEGYDSYSYDYWGQGTQVTVSS,high polyreactivity
10,QVQLVESGGGLVQAGGSLRLSCAASGRIFYPYAMGWYRQAPGQERELVAVINGSGGSTYYADSVKGRFTISRDNAKNTVYLQMNSLKPEDTAVYYCAAVGAYSRNEYDYWGQGTQVTVSS,high polyreactivity
11,QVQLVESGGGLVQAGGSLRLSCAASGRIFYPYVMGWYRQAPGKERELVAAITGGGSTYYADSVKGRFTISRDNAKNTVYLQMNSLKPEDTAVYYCAKRSYGDRDERYDSWGQGTQVTVSS,low polyreactivity
12,QVQLVESGGGLVQAGGSLRLSCAASGRIFYQNVMGWYRQAPGKERELVAAITTSGGRTYYADSVKGRFTISRDNAKNTVYLQMNSLKPEDTAVYYCAAKASNRGYYYWGQGTQVTVSS,high polyreactivity
13,QVQLVESGGGLVQAGGSLRLSCAASGRIFYQYAMGWYRQAPGKERELVAAIRYRDDGTYYADSVKGRFTISRDNAKNTVYLQMNSLKPEDTAVYYCAAKQWGRYGFWGQGTQVTVSS,high polyreactivity
14,QVQLVESGGGLVQAGGSLRLSCAASGRIFYRNAMGWYRQAPGKERELVAAIRGGDNTYYADSVKGRFTISRDNAKNTVYLQMNSLKPEDTAVYYCAARSYRLDSYYWGQGTQVTVSS,high polyreactivity
15,QVQLVESGGGLVQAGGSLRLSCAASGRIFYRNAMGWYRQAPGKERELVAAISRRGGSTSYADSVKGRFTISRDNANNTVYLQMNSLKPEDTAVYYCAASRFRTGQEDDYWGQGTQVTVSS,high polyreactivity
16,QVQLVESGGGLVQAGGSLRLSCAASGRIFYRYAMGGYRQAPGKERELVASITTSGDSTYYADSVKGRFTISRDNAKNTVYLQMNSLKPEDTGVYYCAASSYRGRRYDYWGQGTQVTVSS,high polyreactivity
17,QVQLVESGGGLVQAGGSLRLSCAASGRIFYRYAMGWYRPAPGKERELVATITGRGGSTYYADSVKGRFTISRDNAKNTVYLQMNSLKPEDTAVYYCATTRSVSYPYDGSYYWGQGTQVTVSS,high polyreactivity
